Patent US20120309696A1 (UNIVERSITY OF DENVER, published 2012)

Columns and labels:
[1] = molecular target: T1, human melanocortin 2 receptor (hMC2R), V-5 epitope tagged, expressed on CHO cells co-transfected with mouse … (human, UniProt Q01718 1-297); test: cell-based or functional assay
[2] = molecular target: T1, human melanocortin 2 receptor (hMC2R), …; test: cell-based or functional assay; remark: listed apart in the source

T1 sequence (Q01718 whole entry): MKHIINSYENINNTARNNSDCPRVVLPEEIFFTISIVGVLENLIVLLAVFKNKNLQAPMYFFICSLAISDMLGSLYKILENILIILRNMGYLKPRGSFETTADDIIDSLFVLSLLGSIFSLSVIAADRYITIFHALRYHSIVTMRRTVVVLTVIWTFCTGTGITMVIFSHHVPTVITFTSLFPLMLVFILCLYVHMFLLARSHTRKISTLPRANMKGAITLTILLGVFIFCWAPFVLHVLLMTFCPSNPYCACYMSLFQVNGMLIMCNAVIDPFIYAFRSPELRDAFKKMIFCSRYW

Question: For SYSMEHFRWGKPVGAAAAAVKVYP [ACTH analog SYSMEHFRWGKPVGAAAAAVKVYP], which “fold decrease in potency in cAMP production against ACTH(1-24)” value [1] is on record?
Answer: Its value is 1000 fold.

Question: With SYSMEHFRWGKPVGKKAAAVKVYP [ACTH analog SYSMEHFRWGKPVGKKAAAVKVYP] as the binder, how does the “fold decrease in MC2R activation relative to full-length ACTH (cAMP production in transfected CHO cells)” value [2] read?
Answer: Its value is 100 fold.

Question: Which “fold decrease in MC2R activation relative to full-length ACTH (cAMP production in transfected CHO cells)” value [2] does the source give for SYSMEHFRWGKPVGAARRPVKVYP [ACTH analog SYSMEHFRWGKPVGAARRPVKVYP] here?
Answer: The value was 100 fold.

Question: SYSMEHFRWAAAAAKKRRPVKVYP [ACTH analog SYSMEHFRWAAAAAKKRRPVKVYP] was tested. Which “fold decrease in MC2R activation relative to full-length ACTH (cAMP production in transfected CHO cells)” value [2] did it give?
Answer: The value was 400 fold.
